Patent US20230365662A1
Where “and” joins values, the source holds several entries; their conditions need not be identical. Equal values may be shown once.

Target: HRgpA-6H (Porphyromonas gingivalis) (UniProt P28784)
Test: ELISA on coated HRgpA-6H

Sequence of UniProt P28784 (P28784 228-991 limits assumed): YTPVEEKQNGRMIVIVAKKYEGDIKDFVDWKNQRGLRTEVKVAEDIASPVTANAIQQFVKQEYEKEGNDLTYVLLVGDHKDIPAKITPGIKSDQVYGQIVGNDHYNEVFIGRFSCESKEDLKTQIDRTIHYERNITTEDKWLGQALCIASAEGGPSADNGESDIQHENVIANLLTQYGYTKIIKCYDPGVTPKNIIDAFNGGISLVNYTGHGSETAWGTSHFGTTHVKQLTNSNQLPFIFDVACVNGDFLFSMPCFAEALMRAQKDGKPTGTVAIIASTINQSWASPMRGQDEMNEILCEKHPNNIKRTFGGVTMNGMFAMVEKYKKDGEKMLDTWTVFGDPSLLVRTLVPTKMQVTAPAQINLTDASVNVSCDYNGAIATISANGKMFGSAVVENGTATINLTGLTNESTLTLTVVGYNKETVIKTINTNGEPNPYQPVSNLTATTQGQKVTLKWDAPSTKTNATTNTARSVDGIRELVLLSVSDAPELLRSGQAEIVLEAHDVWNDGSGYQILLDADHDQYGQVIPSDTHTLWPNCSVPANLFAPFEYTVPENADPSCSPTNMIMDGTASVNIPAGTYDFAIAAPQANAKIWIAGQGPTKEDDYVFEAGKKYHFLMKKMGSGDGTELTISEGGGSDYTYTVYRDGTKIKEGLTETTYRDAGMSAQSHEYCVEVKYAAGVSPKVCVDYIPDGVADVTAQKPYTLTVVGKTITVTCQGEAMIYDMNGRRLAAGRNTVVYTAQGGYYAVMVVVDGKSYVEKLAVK

| Binder | OD450nm | Ratio OD(Variant)/OD(WT) |
| --- | --- | --- |
| KB001 mouse Fab FASEBA VH G26N (Fab, V domains shown) VH: EVQLKQSGPGLVAPSQSLSITCTVSNFSLSIYSVHWVRQPPGKGLEWLGMIWGGGSSDYNSALKSRLSISKDNSKSQVFLKMNSLQTDDTAMYYCARNGNFYAMDYWGQGTSVTVSS VL: QIVLTQSPAIMSASLGERVTMTCTASSSVSSSFLHWYQQKPGSSPQLWIYSTSNLASGVPARFSGSGSGTSYSLTISSMEAEDAATYYCHQYHHSPYIYTFGGGTKLEIK | 0.445 | 0.876 |
| KB001 mouse Fab FASEBA VH S30R (Fab, V domains shown) VH: EVQLKQSGPGLVAPSQSLSITCTVSGFSLRIYSVHWVRQPPGKGLEWLGMIWGGGSSDYNSALKSRLSISKDNSKSQVFLKMNSLQTDDTAMYYCARNGNFYAMDYWGQGTSVTVSS VL: QIVLTQSPAIMSASLGERVTMTCTASSSVSSSFLHWYQQKPGSSPQLWIYSTSNLASGVPARFSGSGSGTSYSLTISSMEAEDAATYYCHQYHHSPYIYTFGGGTKLEIK | 0.481 | 0.953 |
| KB001 mouse Fab FASEBA VH S28A (Fab, V domains shown) VH: EVQLKQSGPGLVAPSQSLSITCTVSGFALSIYSVHWVRQPPGKGLEWLGMIWGGGSSDYNSALKSRLSISKDNSKSQVFLKMNSLQTDDTAMYYCARNGNFYAMDYWGQGTSVTVSS VL: QIVLTQSPAIMSASLGERVTMTCTASSSVSSSFLHWYQQKPGSSPQLWIYSTSNLASGVPARFSGSGSGTSYSLTISSMEAEDAATYYCHQYHHSPYIYTFGGGTKLEIK | 0.488 | 0.904 |
| KB001 mouse Fab FASEBA VH S28R (Fab, V domains shown) VH: EVQLKQSGPGLVAPSQSLSITCTVSGFRLSIYSVHWVRQPPGKGLEWLGMIWGGGSSDYNSALKSRLSISKDNSKSQVFLKMNSLQTDDTAMYYCARNGNFYAMDYWGQGTSVTVSS VL: QIVLTQSPAIMSASLGERVTMTCTASSSVSSSFLHWYQQKPGSSPQLWIYSTSNLASGVPARFSGSGSGTSYSLTISSMEAEDAATYYCHQYHHSPYIYTFGGGTKLEIK | 0.458 | 0.848 |
| KB001 mouse Fab FASEBA VH S28L (Fab, V domains shown) VH: EVQLKQSGPGLVAPSQSLSITCTVSGFLLSIYSVHWVRQPPGKGLEWLGMIWGGGSSDYNSALKSRLSISKDNSKSQVFLKMNSLQTDDTAMYYCARNGNFYAMDYWGQGTSVTVSS VL: QIVLTQSPAIMSASLGERVTMTCTASSSVSSSFLHWYQQKPGSSPQLWIYSTSNLASGVPARFSGSGSGTSYSLTISSMEAEDAATYYCHQYHHSPYIYTFGGGTKLEIK | 0.435 and 0.468 | 0.806 and 0.867 |
| KB001 mouse Fab FASEBA VH I31E (Fab, V domains shown) VH: EVQLKQSGPGLVAPSQSLSITCTVSGFSLSEYSVHWVRQPPGKGLEWLGMIWGGGSSDYNSALKSRLSISKDNSKSQVFLKMNSLQTDDTAMYYCARNGNFYAMDYWGQGTSVTVSS VL: QIVLTQSPAIMSASLGERVTMTCTASSSVSSSFLHWYQQKPGSSPQLWIYSTSNLASGVPARFSGSGSGTSYSLTISSMEAEDAATYYCHQYHHSPYIYTFGGGTKLEIK | 0.42 and 0.458 and 0.428 | 0.833 and 0.908 and 0.848 |
| KB001 mouse Fab FASEBA VH S30F (Fab, V domains shown) VH: EVQLKQSGPGLVAPSQSLSITCTVSGFSLFIYSVHWVRQPPGKGLEWLGMIWGGGSSDYNSALKSRLSISKDNSKSQVFLKMNSLQTDDTAMYYCARNGNFYAMDYWGQGTSVTVSS VL: QIVLTQSPAIMSASLGERVTMTCTASSSVSSSFLHWYQQKPGSSPQLWIYSTSNLASGVPARFSGSGSGTSYSLTISSMEAEDAATYYCHQYHHSPYIYTFGGGTKLEIK | 0.438 | 0.868 |
| KB001 mouse Fab FASEBA VH S30T (Fab, V domains shown) VH: EVQLKQSGPGLVAPSQSLSITCTVSGFSLTIYSVHWVRQPPGKGLEWLGMIWGGGSSDYNSALKSRLSISKDNSKSQVFLKMNSLQTDDTAMYYCARNGNFYAMDYWGQGTSVTVSS VL: QIVLTQSPAIMSASLGERVTMTCTASSSVSSSFLHWYQQKPGSSPQLWIYSTSNLASGVPARFSGSGSGTSYSLTISSMEAEDAATYYCHQYHHSPYIYTFGGGTKLEIK | 0.457 | 0.906 |
| KB001 mouse Fab FASEBA VH S28G (Fab, V domains shown) VH: EVQLKQSGPGLVAPSQSLSITCTVSGFGLSIYSVHWVRQPPGKGLEWLGMIWGGGSSDYNSALKSRLSISKDNSKSQVFLKMNSLQTDDTAMYYCARNGNFYAMDYWGQGTSVTVSS VL: QIVLTQSPAIMSASLGERVTMTCTASSSVSSSFLHWYQQKPGSSPQLWIYSTSNLASGVPARFSGSGSGTSYSLTISSMEAEDAATYYCHQYHHSPYIYTFGGGTKLEIK | 0.468 and 0.486 | 0.867 and 0.9 |
| KB001 mouse Fab FASEBA VH S28Y (Fab, V domains shown) VH: EVQLKQSGPGLVAPSQSLSITCTVSGFYLSIYSVHWVRQPPGKGLEWLGMIWGGGSSDYNSALKSRLSISKDNSKSQVFLKMNSLQTDDTAMYYCARNGNFYAMDYWGQGTSVTVSS VL: QIVLTQSPAIMSASLGERVTMTCTASSSVSSSFLHWYQQKPGSSPQLWIYSTSNLASGVPARFSGSGSGTSYSLTISSMEAEDAATYYCHQYHHSPYIYTFGGGTKLEIK | 0.437 | 0.809 |
| KB001 mouse Fab FASEBA VH S30K (Fab, V domains shown) VH: EVQLKQSGPGLVAPSQSLSITCTVSGFSLKIYSVHWVRQPPGKGLEWLGMIWGGGSSDYNSALKSRLSISKDNSKSQVFLKMNSLQTDDTAMYYCARNGNFYAMDYWGQGTSVTVSS VL: QIVLTQSPAIMSASLGERVTMTCTASSSVSSSFLHWYQQKPGSSPQLWIYSTSNLASGVPARFSGSGSGTSYSLTISSMEAEDAATYYCHQYHHSPYIYTFGGGTKLEIK | 0.46 and 0.467 and 0.493 | 0.912 and 0.926 and 0.977 |
| KB001 mouse Fab FASEBA VH S28N (Fab, V domains shown) VH: EVQLKQSGPGLVAPSQSLSITCTVSGFNLSIYSVHWVRQPPGKGLEWLGMIWGGGSSDYNSALKSRLSISKDNSKSQVFLKMNSLQTDDTAMYYCARNGNFYAMDYWGQGTSVTVSS VL: QIVLTQSPAIMSASLGERVTMTCTASSSVSSSFLHWYQQKPGSSPQLWIYSTSNLASGVPARFSGSGSGTSYSLTISSMEAEDAATYYCHQYHHSPYIYTFGGGTKLEIK | 0.53 | 0.981 |
| KB001 mouse Fab FASEBA VH L29T (Fab, V domains shown) VH: EVQLKQSGPGLVAPSQSLSITCTVSGFSTSIYSVHWVRQPPGKGLEWLGMIWGGGSSDYNSALKSRLSISKDNSKSQVFLKMNSLQTDDTAMYYCARNGNFYAMDYWGQGTSVTVSS VL: QIVLTQSPAIMSASLGERVTMTCTASSSVSSSFLHWYQQKPGSSPQLWIYSTSNLASGVPARFSGSGSGTSYSLTISSMEAEDAATYYCHQYHHSPYIYTFGGGTKLEIK | 0.502 and 0.512 and 0.501 | 0.93 and 0.948 and 0.928 |
| KB001 mouse Fab FASEBA VH L29V (Fab, V domains shown) VH: EVQLKQSGPGLVAPSQSLSITCTVSGFSVSIYSVHWVRQPPGKGLEWLGMIWGGGSSDYNSALKSRLSISKDNSKSQVFLKMNSLQTDDTAMYYCARNGNFYAMDYWGQGTSVTVSS VL: QIVLTQSPAIMSASLGERVTMTCTASSSVSSSFLHWYQQKPGSSPQLWIYSTSNLASGVPARFSGSGSGTSYSLTISSMEAEDAATYYCHQYHHSPYIYTFGGGTKLEIK | 0.446 | 0.826 |
| KB001 mouse Fab FASEBA VH S30W (Fab, V domains shown) VH: EVQLKQSGPGLVAPSQSLSITCTVSGFSLWIYSVHWVRQPPGKGLEWLGMIWGGGSSDYNSALKSRLSISKDNSKSQVFLKMNSLQTDDTAMYYCARNGNFYAMDYWGQGTSVTVSS VL: QIVLTQSPAIMSASLGERVTMTCTASSSVSSSFLHWYQQKPGSSPQLWIYSTSNLASGVPARFSGSGSGTSYSLTISSMEAEDAATYYCHQYHHSPYIYTFGGGTKLEIK | 0.469 | 0.93 |
| KB001 mouse Fab FASEBA VH L29P (Fab, V domains shown) VH: EVQLKQSGPGLVAPSQSLSITCTVSGFSPSIYSVHWVRQPPGKGLEWLGMIWGGGSSDYNSALKSRLSISKDNSKSQVFLKMNSLQTDDTAMYYCARNGNFYAMDYWGQGTSVTVSS VL: QIVLTQSPAIMSASLGERVTMTCTASSSVSSSFLHWYQQKPGSSPQLWIYSTSNLASGVPARFSGSGSGTSYSLTISSMEAEDAATYYCHQYHHSPYIYTFGGGTKLEIK | 0.468 | 0.867 |
| KB001 mouse Fab FASEBA VH S28H (Fab, V domains shown) VH: EVQLKQSGPGLVAPSQSLSITCTVSGFHLSIYSVHWVRQPPGKGLEWLGMIWGGGSSDYNSALKSRLSISKDNSKSQVFLKMNSLQTDDTAMYYCARNGNFYAMDYWGQGTSVTVSS VL: QIVLTQSPAIMSASLGERVTMTCTASSSVSSSFLHWYQQKPGSSPQLWIYSTSNLASGVPARFSGSGSGTSYSLTISSMEAEDAATYYCHQYHHSPYIYTFGGGTKLEIK | 0.511 and 0.526 | 0.946 and 0.974 |
| KB001 mouse Fab FASEBA VH S30Q (Fab, V domains shown) VH: EVQLKQSGPGLVAPSQSLSITCTVSGFSLQIYSVHWVRQPPGKGLEWLGMIWGGGSSDYNSALKSRLSISKDNSKSQVFLKMNSLQTDDTAMYYCARNGNFYAMDYWGQGTSVTVSS VL: QIVLTQSPAIMSASLGERVTMTCTASSSVSSSFLHWYQQKPGSSPQLWIYSTSNLASGVPARFSGSGSGTSYSLTISSMEAEDAATYYCHQYHHSPYIYTFGGGTKLEIK | 0.47 and 0.483 | 0.932 and 0.957 |
| KB001 mouse Fab FASEBA VH S30L (Fab, V domains shown) VH: EVQLKQSGPGLVAPSQSLSITCTVSGFSLLIYSVHWVRQPPGKGLEWLGMIWGGGSSDYNSALKSRLSISKDNSKSQVFLKMNSLQTDDTAMYYCARNGNFYAMDYWGQGTSVTVSS VL: QIVLTQSPAIMSASLGERVTMTCTASSSVSSSFLHWYQQKPGSSPQLWIYSTSNLASGVPARFSGSGSGTSYSLTISSMEAEDAATYYCHQYHHSPYIYTFGGGTKLEIK | 0.468 | 0.928 |
| KB001 mouse Fab FASEBA VH S30H (Fab, V domains shown) VH: EVQLKQSGPGLVAPSQSLSITCTVSGFSLHIYSVHWVRQPPGKGLEWLGMIWGGGSSDYNSALKSRLSISKDNSKSQVFLKMNSLQTDDTAMYYCARNGNFYAMDYWGQGTSVTVSS VL: QIVLTQSPAIMSASLGERVTMTCTASSSVSSSFLHWYQQKPGSSPQLWIYSTSNLASGVPARFSGSGSGTSYSLTISSMEAEDAATYYCHQYHHSPYIYTFGGGTKLEIK | 0.482 | 0.955 |
| KB001 mouse Fab FASEBA VH S30M (Fab, V domains shown) VH: EVQLKQSGPGLVAPSQSLSITCTVSGFSLMIYSVHWVRQPPGKGLEWLGMIWGGGSSDYNSALKSRLSISKDNSKSQVFLKMNSLQTDDTAMYYCARNGNFYAMDYWGQGTSVTVSS VL: QIVLTQSPAIMSASLGERVTMTCTASSSVSSSFLHWYQQKPGSSPQLWIYSTSNLASGVPARFSGSGSGTSYSLTISSMEAEDAATYYCHQYHHSPYIYTFGGGTKLEIK | 0.437 | 0.866 |
